Experimental findings from patent US20230242633A1 (KANAPH THERAPEUTICS, published 2023) are described below.

For assay [1], the target named is T1, mouse C3b (mouse, UniProt P01027 25-666; P01027 749-1663, limits assumed). In words: ELISA, mouse C3b immobilised on the plate; the printed value lies above the highest concentration shown (Log10 about 1.2), the curve reaches only OD450 about 1. An excerpt: (§1) Specifically, a human C3b protein was immobilized on a plate, and C1.01, C1.02, C1.03, and C1.04, and hIgG1 as a control were bound thereto. Next, an anti-human immunoglobulin G antibody and an anti-horseradish peroxidase (HRP) antibody were sequentially bound thereto. Moreover, a mouse C3b protein was immobilized on a plate, and C1.01m to C1.03m containing mouse CRIg were bound to mouse C3b.
T1 sequence (P01027 25-666 limits assumed, chain 1 of 2): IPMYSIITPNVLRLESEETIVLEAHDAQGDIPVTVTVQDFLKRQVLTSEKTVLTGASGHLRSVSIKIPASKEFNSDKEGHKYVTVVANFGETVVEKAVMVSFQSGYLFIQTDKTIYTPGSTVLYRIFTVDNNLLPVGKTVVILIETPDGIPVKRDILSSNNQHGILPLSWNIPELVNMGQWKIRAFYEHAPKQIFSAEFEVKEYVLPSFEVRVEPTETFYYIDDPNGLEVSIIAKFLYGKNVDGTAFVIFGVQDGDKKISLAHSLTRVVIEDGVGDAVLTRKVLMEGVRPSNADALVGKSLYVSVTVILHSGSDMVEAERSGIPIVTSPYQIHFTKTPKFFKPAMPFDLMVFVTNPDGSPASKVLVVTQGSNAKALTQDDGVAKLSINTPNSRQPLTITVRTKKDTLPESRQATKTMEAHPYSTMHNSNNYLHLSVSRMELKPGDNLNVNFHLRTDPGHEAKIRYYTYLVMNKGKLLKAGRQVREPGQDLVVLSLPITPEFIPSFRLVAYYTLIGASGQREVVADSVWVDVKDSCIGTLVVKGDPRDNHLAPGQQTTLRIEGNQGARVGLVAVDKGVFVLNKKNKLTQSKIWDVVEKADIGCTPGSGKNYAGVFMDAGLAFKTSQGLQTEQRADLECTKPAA
T1 sequence (P01027 749-1663 limits assumed, chain 2 of 2): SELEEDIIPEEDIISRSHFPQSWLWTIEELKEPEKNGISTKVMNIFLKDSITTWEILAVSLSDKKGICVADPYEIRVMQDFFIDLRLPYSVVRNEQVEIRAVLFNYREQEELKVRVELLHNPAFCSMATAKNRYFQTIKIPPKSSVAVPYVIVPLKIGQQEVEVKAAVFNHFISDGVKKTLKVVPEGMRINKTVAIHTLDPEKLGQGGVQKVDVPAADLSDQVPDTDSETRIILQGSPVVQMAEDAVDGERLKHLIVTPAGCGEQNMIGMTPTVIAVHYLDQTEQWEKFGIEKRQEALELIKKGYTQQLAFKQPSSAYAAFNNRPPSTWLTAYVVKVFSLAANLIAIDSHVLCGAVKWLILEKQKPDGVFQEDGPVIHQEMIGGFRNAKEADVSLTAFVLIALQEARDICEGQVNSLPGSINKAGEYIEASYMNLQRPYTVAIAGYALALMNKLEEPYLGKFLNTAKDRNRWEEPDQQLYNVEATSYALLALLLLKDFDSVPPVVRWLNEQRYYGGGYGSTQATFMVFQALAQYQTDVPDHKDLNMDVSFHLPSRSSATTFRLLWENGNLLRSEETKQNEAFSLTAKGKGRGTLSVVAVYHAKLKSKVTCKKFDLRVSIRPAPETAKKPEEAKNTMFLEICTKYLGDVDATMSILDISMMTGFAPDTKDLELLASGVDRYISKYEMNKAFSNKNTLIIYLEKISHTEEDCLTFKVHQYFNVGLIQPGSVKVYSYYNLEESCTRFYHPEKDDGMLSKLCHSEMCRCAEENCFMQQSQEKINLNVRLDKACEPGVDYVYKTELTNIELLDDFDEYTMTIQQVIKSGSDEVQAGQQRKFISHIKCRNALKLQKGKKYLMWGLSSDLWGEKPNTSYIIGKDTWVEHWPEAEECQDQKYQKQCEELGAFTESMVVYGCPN
In general terms: In an ELISA, binding on a coated surface is turned into a signal by an enzyme label.

For assay [2], the target named is T1, mouse C3b. In words: ELISA, mouse C3b immobilised on the plate; no upper plateau in the range shown.
Source text: as §1

In assay [3] the target is T1, mouse C3b. As to the kind of experiment: Biacore SPR, 1:1 fit; analyte series 0.78125-50 nM; the analyte is not printed on the sheet, mouse C3b by legend paragraph 26 and the C3b dilution series of paragraph 225. Here is the method: (§2) A C3b stock solution was diluted to 50 nM using a 1×HBS-EP+ buffer. Human VEGF165 was diluted to 5 nM using a 1×HBS-EP+ buffer. The 50 nM and 5 nM solutions were then diluted to 0.78125 nM and 0.078125 nM. In the sample step, the diluted antigens were injected into the flow cells at a rate of 30 μL/min. Two 0 nM antigens (1×HBS-EP+ buffer) were used and removed from the reference signal. Binding for 180 seconds and separation for 400 seconds were performed. After the separation time, a stabilization step for 60 seconds was performed. In the regeneration step, 10 mM glycine (pH 1.5) was injected into the flow cells at a rate of 30 μL/min for 30 seconds, followed by a stabilization step for 60 seconds.
(§3) After subtracting the reference and 0 nM values from the sample values, binding kinetics were calculated using Biacore Insight Evaluation Software (Version 2.0.15.12933) and 1:1 binding model for curved fitting.
For orientation: Surface plasmon resonance follows binding to a sensor surface in real time, without labels.

A further assay addresses T2, human VEGF165 (human, UniProt P15692-4 27-191).
T2 construct: also called human VEGF165 protein
As to the kind of experiment: Biacore SPR; the analyte is not printed on the sheet, human VEGF165 by legend paragraph 26. Here is the method:
In order to measure the binding force of the fusion protein, the physical properties of the prepared fusion protein were analyzed using Biacore 8K (GE Healthcare, 29129951) instrument.
as §2, §3

T2 sequence (P15692 other isoform, or with tags, fused parts or gaps): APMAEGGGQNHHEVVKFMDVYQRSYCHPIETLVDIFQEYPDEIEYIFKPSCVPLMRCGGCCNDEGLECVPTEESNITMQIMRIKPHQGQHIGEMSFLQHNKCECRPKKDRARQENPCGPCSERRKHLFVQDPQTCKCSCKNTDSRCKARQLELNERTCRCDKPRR

B1: C1.03m (mu IgG2a Fc DANG-mu CRIg) (Fc fusion)
chain: EPRGPTIKPCPPCKCPAPNLLGGPSVFIFPPKIKDVLMISLSPIVTCVVVAVSEDDPDVQISWFVNNVEVHTAQTQTHREDYGSTLRVVSALPIQHQDWMSGKEFKCKVNNKDLPAPIERTISKPKGSVRAPQVYVLPPPEEEMTKKQVTLTCMVTDFMPEDIYVEWTNNGKTELNYKNTEPVLDSDGSYFMYSKLRVEKKNWVERNSYSCSVVHEGLHNHHTTKSFSRTPGGGGGSGGGGSHPTLKTPESVTGTWKGDVKIQCIYDPLRGYRQVLVKWLVRHGSDSVTIFLRDSTGDHIQQAKYRGRLKVSHKVPGDVSLQINTLQMDDRNHYTCEVTWQTPDGNQVIRDKIIELRVRKYNPPRINTEAPTTLHSSLEATTIMSSTSDLTTNGTGKLEETIAGSGRNLPG
For the molecule B1, in the assay with mouse C3b [1], a half-maximal effect (EC50) was put at 31.1 µg/mL.

B2: C1.02m (mu CRIg-mu IgG2a Fc DANG-VEGF binder) (Fc fusion)
chain: HPTLKTPESVTGTWKGDVKIQCIYDPLRGYRQVLVKWLVRHGSDSVTIFLRDSTGDHIQQAKYRGRLKVSHKVPGDVSLQINTLQMDDRNHYTCEVTWQTPDGNQVIRDKIIELRVRKYNPPRINTEAPTTLHSSLEATTIMSSTSDLTTNGTGKLEETIAGSGRNLPGGGGSEPRGPTIKPCPPCKCPAPNLLGGPSVFIFPPKIKDVLMISLSPIVTCVVVAVSEDDPDVQISWFVNNVEVHTAQTQTHREDYGSTLRVVSALPIQHQDWMSGKEFKCKVNNKDLPAPIERTISKPKGSVRAPQVYVLPPPEEEMTKKQVTLTCMVTDFMPEDIYVEWTNNGKTELNYKNTEPVLDSDGSYFMYSKLRVEKKNWVERNSYSCSVVHEGLHNHHTTKSFSRTPGGGGGSGGGGSSDTGRPFVEMYSEIPEIIHMTEGRELVIPCRVTSPNITVTLKKFPLDTLIPDGKRIIWDSRKGFIISNATYKEIGLLTCEATVNGHLYKTNYLTHRQTNTIIDVVLSPSHGIELSVGEKLVLNCTARTELNVGIDFNWEYPSSKHQHKKLVNRDLKTQSGSEMKKFLSTLTIDGVTRSDQGLYTCAASSGLMTKKNSTFVRVHEK
B2: it took 1.85 µg/mL to reach a half-maximal effect with mouse C3b [2] (EC50). Further, the Kd (commonly a measure of binding affinity in units of concentration) with mouse C3b [3] is 7.97 pM. Besides, the binding result with human VEGF165 is “binds”.

B3: C1.01m (mu CRIg-mu IgG2a Fc DANG) (Fc fusion)
chain: HPTLKTPESVTGTWKGDVKIQCIYDPLRGYRQVLVKWLVRHGSDSVTIFLRDSTGDHIQQAKYRGRLKVSHKVPGDVSLQINTLQMDDRNHYTCEVTWQTPDGNQVIRDKIIELRVRKYNPPRINTEAPTTLHSSLEATTIMSSTSDLTTNGTGKLEETIAGSGRNLPGGGGSEPRGPTIKPCPPCKCPAPNLLGGPSVFIFPPKIKDVLMISLSPIVTCVVVAVSEDDPDVQISWFVNNVEVHTAQTQTHREDYGSTLRVVSALPIQHQDWMSGKEFKCKVNNKDLPAPIERTISKPKGSVRAPQVYVLPPPEEEMTKKQVTLTCMVTDFMPEDIYVEWTNNGKTELNYKNTEPVLDSDGSYFMYSKLRVEKKNWVERNSYSCSVVHEGLHNHHTTKSFSRTPGK
Take B3: in the assay with mouse C3b [2], a half-maximal response (EC50) required 0.821 µg/mL. This molecule registered an equilibrium dissociation constant (Kd) with mouse C3b [3] of 0.987 pM.
